{"source": "patent US9644034B2", "about": "“Anti-RSPO2 antibodies and uses thereof” (OncoMed Pharmaceuticals, Inc., priority 2011, dated 2017)", "molecules": {"B1": {"name": "89M2: anti-RSPO1 monoclonal antibody; same heavy and light chain variable regions as 89M5 (antibody, V domains shown)", "VH": "EVQLQQSGPELVKPGASVKISCKTSGYTFTGYTMHWVRQSHGKTLEWIGGINPNNGGTTYNQNFKGKATLTVEKSSTTAYLELRSLTSEDSALYYCARKEFSDGYYFFAYWGQGTLVTVSA", "VL": "DIVMTQSHKFMSTSVGDRVNITCKASQDVIFAVAWYQQKPGQSPKLLIYWASTRHTGVPDRFTGSVSGTDYTLTISSVQAEDLALYYCQQHYSTPWTFGGGTKLEIK"}, "B2": {"name": "89M4: anti-RSPO1 monoclonal antibody; same heavy and light chain variable regions as 89M5 (antibody, V domains shown)", "VH": "B1 VH", "VL": "B1 VL"}, "B3": {"name": "130M23-H1: humanized 130M23 heavy chain variant (SEQ ID NO:70) (antibody)", "heavy": "EVQLVESGGGLVKPGGSLRLSCAASGFTFSSYAMSWVRQAPGKGLEWVSSISSGGSTYYPDSVKGRFTISRDNAKNSLYLQMNSLRAEDTAVYYCARGGDPGVYNGDYEDAMDYWGQGTTVTVSSASTKGPSVFPLAPCSRSTSESTAALGCLVKDYFPEPVTVSWNSGALTSGVHTFPAVLQSSGLYSLSSVVTVPSSNFGTQTYTCNVDHKPSNTKVDKTVERKCCVECPPCPAPPVAGPSVFLFPPKPKDTLMISRTPEVTCVVVDVSHEDPEVQFNWYVDGVEVHNAKTKPREEQFNSTFRVVSVLTVVHQDWLNGKEYKCKVSNKGLPAPIEKTISKTKGQPREPQVYTLPPSREEMTKNQVSLTCLVKGFYPSDIAVEWESNGQPENNYKTTPPMLDSDGSFFLYSKLTVDKSRWQQGNVFSCSVMHEALHNHYTQKSLSLSPGK", "modifications": "h130M23-H1L2 Heavy chain amino acid sequence"}, "B4": {"name": "18R5: anti-FZD antibody, Wnt pathway inhibitor (antibody, chains of the INN, looked up, V domains shown)", "VH": "EVQLVESGGGLVQPGGSLRLSCAASGFTFSHYTLSWVRQAPGKGLEWVSVISGDGSYTYYADSVKGRFTISSDNSKNTLYLQMNSLRAEDTAVYYCARNFIKYVFANWGQGTLVTVSS", "VL": "DIELTQPPSVSVAPGQTARISCSGDNIGSFYVHWYQQKPGQAPVLVIYDKSNRPSGIPERFSGSNSGNTATLTISGTQAEDEADYYCQSYANTLSLVFGGGTKLTVL"}, "B5": {"name": "89M5-H2: humanized 89M5 heavy chain variant (SEQ ID NO:68) (antibody)", "heavy": "QVQLVQSGAEVKKPGASVKVSCKTSGYTFTGYTMHWVRQAPGQRLEWMGGINPNNGGTTYNQNFKGRVTITRDTSASTAYMELSSLRSEDTAVYYCARKEFSDGYYFFAYWGQGTLVTVSSASTKGPSVFPLAPCSRSTSESTAALGCLVKDYFPEPVTVSWNSGALTSGVHTFPAVLQSSGLYSLSSVVTVPSSNFGTQTYTCNVDHKPSNTKVDKTVERKCCVECPPCPAPPVAGPSVFLFPPKPKDTLMISRTPEVTCVVVDVSHEDPEVQFNWYVDGVEVHNAKTKPREEQFNSTFRVVSVLTVVHQDWLNGKEYKCKVSNKGLPAPIEKTISKTKGQPREPQVYTLPPSREEMTKNQVSLTCLVKGFYPSDIAVEWESNGQPENNYKTTPPMLDSDGSFFLYSKLTVDKSRWQQGNVFSCSVMHEALHNHYTQKSLSLSPGK", "modifications": "h89M5-H2L2 Heavy chain amino acid sequence"}, "B6": {"name": "89M5-L2: humanized 89M5 light chain variant (SEQ ID NO:69) (protein)", "light": "DIQMTQSPSSLSASVGDRVTITCKASQDVIFAVAWYQQKPGKAPKLLIYWASTRHTGVPSRFSGSGSGTDYTLTISSLQPEDFATYYCQQHYSTPWTFGGGTKVEIKRTVAAPSVFIFPPSDEQLKSGTASVVCLLNNFYPREAKVQWKVDNALQSGNSQESVTEQDSKDSTYSLSNTLTLSKADYEKHKVYACEVTHQGLSSPVTKSFNRGEC", "modifications": "h89M5-H2L2 Light chain amino acid sequence"}, "B7": {"name": "130M23-L2: humanized 130M23 light chain variant (SEQ ID NO:71) (protein)", "light": "B6 light with I30S, F31S, Y71F, L78V, P80A, G100Q", "modifications": "h130M23-H1L2 Light chain amino acid sequence"}}, "key": {"[1]": {"test_system": "PN31 pancreatic tumor cells", "test": "PN31 pancreatic tumor xenograft growth in NOD/SCID mice", "type": "in vivo", "settings": "vs control; antibodies 15 mg/kg once a week, gemcitabine once a week, intraperitoneal", "experimental": "Dissociated PN31 pancreatic tumor cells (1×10^5cells) were injected subcutaneously into the flanks of 6-8 week old NOD/SCID mice. Tumors were allowed to grow for 61 days until they reached an average volume of 120 mm^3. The mice were randomized (n=10 per group) and treated with anti-RSPO1 antibody 89M5, anti-RSPO2 antibody 130M23, gemcitabine, a combination of 89M5 and gemcitabine, a combination of 130M23 and gemcitabine, or control antibody 1B7.11. Antibodies were dosed at 15 mg/kg once a week, and gemcitabine was dosed at […] once a week. Administration of the antibodies and gemcitabine was performed via injection into the intraperitoneal cavity. Tumor growth was monitored and tumor volumes were measured with electronic calipers at specific time points. Data are expressed as mean±S.E.M."}, "PN7 tumors": {"test_system": "PN7 tumors", "test": "Serial transplantation of cells from treated PN7 tumors (tumorigenicity)", "type": "in vivo, NOD-SCID mice", "settings": "90 cells injected, 40 days growth with no treatment; vs control antibody", "experimental": "The PN7 tumors described above were processed to yield single cell suspensions. Mouse cells were depleted from the cell mixtures using biotinylated anti-H2K^d and anti-CD45 antibodies and streptavidin-conjugated magnetic beads. The remaining human tumor cells were serially transplanted into a new cohort of mice. 90 tumor cells from each treatment group were injected into the flanks of NOD-SCID mice (n=10 mice per group). Tumors were allowed to grow for 40 days with no treatment and tumor volumes were measured with electronic calipers."}, "binding of RSPO1 to LGR5": {"target": "T1, binding of RSPO1 to LGR5 (Homo sapiens, UniProt Q2MKA7)", "T1 construct": "full-length human RSPO1, RSPO2, RSPO3 and RSPO4 were ligated in-frame to a human Fc region; made in house; host or cells: RSPO1-Fc: insect cells (baculovirus); LGR5 construct: transiently transfected HEK-293", "T1 sequence (Q2MKA7 21-263)": "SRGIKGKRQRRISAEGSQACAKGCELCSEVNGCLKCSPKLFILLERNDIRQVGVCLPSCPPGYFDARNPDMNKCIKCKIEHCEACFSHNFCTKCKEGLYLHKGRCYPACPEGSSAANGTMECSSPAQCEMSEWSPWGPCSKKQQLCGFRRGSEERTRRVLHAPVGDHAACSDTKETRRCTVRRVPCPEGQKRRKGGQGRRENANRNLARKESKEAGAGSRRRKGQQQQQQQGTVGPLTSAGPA", "test": "FACS: blocking of soluble RSPO1-Fc binding to LGR5 on HEK-293 cells", "settings": "RSPO1-Fc 10 μg/ml, antibodies 10 μg/ml", "experimental": "HEK-293 cells were transiently transfected with the FLAG-LGR5-CD4TM-GFP construct (previously described in Example 2). After 48 hours, transfected cells were suspended in ice cold PBS containing 2% FBS and heparin and incubated on ice in the presence of RSPO1-Fc protein (10 μg/ml) and antibodies 89M2, 89M4, 89M5, 89M7, 89M19 or 89M25 (10 μg/ml). A second incubation with 100 μl PE-conjugated anti-human Fc secondary antibody was performed to detect cells bound by the RSPO1-Fc fusion protein. The cells were analyzed on a FACSCalibur instrument (BD Biosciences, San Jose, Calif.) and the data was processed using FlowJo software."}, "human RSPO1": {"target": "T2, human RSPO1 (Homo sapiens, UniProt Q2MKA7)", "T2 construct": "followed by the two furin-like domains of RSPO1 (aa 34-135); expressed in transfected cells; host or cells: HEK-293", "T2 sequence (Q2MKA7 34-135)": "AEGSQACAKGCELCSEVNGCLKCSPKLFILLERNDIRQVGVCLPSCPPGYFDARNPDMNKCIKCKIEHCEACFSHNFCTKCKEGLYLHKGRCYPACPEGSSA", "test": "FACS screening of hybridoma supernatants on HEK-293 cells expressing FLAG-RSPO1furin-CD4TM-GFP", "type": "binding", "description": "Antibodies were generated against recombinant human RSPO1 protein amino acids 31-263 (R&D Systems, Minneapolis, Minn.). Mice (n=3) were immunized with RSPO1 protein using standard techniques. Sera from individual mice were screened against RSPO1 approximately 70 days after initial immunization using FACS analysis. The animal with the highest antibody titer was selected for final antigen boost after which spleen cells were isolated for hybridoma production. SP2/0 cells were used as fusion partners for the mouse spleen cells. Hybridoma cells were plated at 1 cell per well in 96 well plates, and the supernatants were screened against human RSPO1 by FACS analysis.\nFor FACS screening of anti-RSPO1 antibodies a chimeric fusion protein enabling cell surface expression of the N-terminal furin-like domains of human RSPO1 was constructed.\nHEK-293 cells were transfected with FLAG-RSPOlfurin-CD4TM-GFP. After 48 hours, transfected cells were suspended in ice cold PBS containing 2% FBS and heparin and incubated on ice in the presence of 50 μl of hybridoma supernatants for 30 minutes. A second incubation with 100 μl PE-conjugated […] secondary antibody was performed to detect cells bound by antibody. Cells were incubated with an anti-FLAG antibody (Sigma-Aldrich, St. Louis, Mo.) as a positive control and an anti-PE antibody as a negative control. The cells were analyzed on a FACSCalibur instrument (BD Biosciences, San Jose, Calif.) and the data was processed using FlowJo software."}, "[2]": {"test_system": "RSPO1-induced β-catenin signaling", "test": "TOPflash luciferase assay in HEK-293 cells, Wnt3a plus human RSPO1", "type": "cell-based", "settings": "Wnt3a 5 ng/ml, RSPO1 10 ng/ml; antibodies 10 to 0.625 μg/ml", "experimental": "HEK-293 cells were transfected with a 6×TCF-luciferase reporter vector (TOPflash, Millipore, Billerica, Mass.). After 24-48 hrs, the transfected HEK-293 cells were incubated with a combination of Wnt3a (5 ng/ml) and human RSPO1 (10 ng/ml, R&D BioSystems) in the presence of anti-RSPO1 antibodies 89M2, 89M4, 89M5, 89M7, 89M19, and 89M25, or 2 irrelevant control antibodies 254M14 and 254M26 (2-fold dilutions at 10 μg/ml to 0.625 μg/ml). The cells were incubated for 16 hours and luciferase activity was measured using Steady-Glo® Luciferase Assay System according to the manufacturer's instructions (Promega, Madison, Wis.)."}, "RSPO": {"test_system": "RSPO", "test": "FACS RSPO binding activity of conditioned media from HEK-293 cells cotransfected with candidate humanized chains", "settings": "conditioned media of cotransfected HEK-293 cells", "experimental": "The functionality of each candidate variant humanized heavy chain and light chain was tested by cotransfection into mammalian cells. Each candidate humanized heavy chain described above was cotransfected into HEK-293 cells with the murine light chain cDNA, and conditioned media was assayed by FACS for RSPO binding activity. […] The 89M5-H2 humanized heavy chain was cotransfected into HEK-293 cells with each of the candidate humanized light chains, and conditioned media was again assayed for antigen binding by FACS. […] The 130M23-H1 humanized heavy chain was cotransfected into HEK-293 cells with each of the candidate humanized light chains, and conditioned media was again assayed for antigen binding by FACS."}, "[3]": {"test_system": "PN7 pancreatic tumor cells", "test": "PN7 pancreatic tumor xenograft growth in NOD/SCID mice", "type": "in vivo", "settings": "vs control antibody; 130M23 10 mg/kg, 18R5 20 mg/kg, gemcitabine once a week, intraperitoneal", "experimental": "Dissociated PN7 pancreatic tumor cells (1×10^5cells) were injected subcutaneously into the flanks of 6-8 week old NOD/SCID mice. Tumors were allowed to grow for 25 days until they reached an average volume of 130 mm^3. The mice were randomized (n=10 per group) and treated with anti-RSPO2 antibody 130M23, anti-FZD antibody 18R5, gemcitabine, a combination of 130M23 and gemcitabine, a combination of 18R5 and gemcitabine, a combination of 130M23 and 18R5, a combination of 130M23, 18R5 and gemcitabine, or control antibody 1B7.11. Anti-RSPO2 antibody 130M23 was dosed at 10 mg/kg once a week, anti-FZD antibody 18R5 was dosed at 20 mg/kg once a week, and gemcitabine was dosed at […] once a week. Administration of the antibodies and gemcitabine was performed via injection into the intraperitoneal cavity. Tumor growth was monitored and tumor volumes were measured with electronic calipers at specific time points. Data are expressed as mean±S.E.M. A parallel set of experiments included mice treated with a FZD8-Fc soluble receptor (10 mg/kg) in combination with gemcitabine and FZD8-Fc in combination with 130M23 and gemcitabine."}}, "note": "Where a chain is given by its changes, count along the chain named.", "data": [{"molecule": "Nc1ccn([C@@H]2O[C@H](CO)[C@@H](O)C2(F)F)c(=O)n1", "note": "[gemcitabine, reference compound]", "values": [{"measurement": "reduction in tumor growth", "setting": "[1]", "result": 49, "unit": "%"}, {"measurement": "tumorigenicity of cells isolated from treated mice", "setting": "PN7 tumors", "result": "decrease in tumorigenicity"}]}, {"molecule": "B1", "values": [{"measurement": "blocking of binding of RSPO1 to LGR5", "setting": "binding of RSPO1 to LGR5", "result": "blocked"}, {"measurement": "binding to RSPO1 (FACS)", "setting": "human RSPO1", "result": "bound"}, {"measurement": "blocking of RSPO1-induced β-catenin signaling", "setting": "[2]", "result": "blocked"}]}, {"molecule": "B2", "values": [{"measurement": "blocking of binding of RSPO1 to LGR5", "setting": "binding of RSPO1 to LGR5", "result": "blocked"}, {"measurement": "binding to RSPO1 (FACS)", "setting": "human RSPO1", "result": "bound"}, {"measurement": "blocking of RSPO1-induced β-catenin signaling", "setting": "[2]", "result": "blocked"}]}, {"molecule": "B3", "values": [{"measurement": "binding by FACS among candidate humanized chain variants", "setting": "RSPO", "result": "most robust binding"}]}, {"molecule": "B4", "values": [{"measurement": "reduction in tumor growth", "setting": "[3]", "result": "approximately 55%"}, {"measurement": "tumorigenicity of cells isolated from treated mice", "setting": "PN7 tumors", "result": "greatly decreased tumorigenicity"}]}, {"molecule": "B5", "values": [{"measurement": "binding by FACS among candidate humanized chain variants", "setting": "RSPO", "result": "most robust binding"}]}, {"molecule": "B6", "values": [{"measurement": "binding by FACS among candidate humanized chain variants", "setting": "RSPO", "result": "most robust binding"}]}, {"molecule": "B7", "values": [{"measurement": "binding by FACS among candidate humanized chain variants", "setting": "RSPO", "result": "most robust binding"}]}]}
